Assays:
[1] = biological target: A/Puerto Rico/08/1934 H1N1 (PR8 H1N1) HA (influenza A virus A/Puerto Rico/08/1934 …, UniProt P03452 18-528); experiment: cell-based or functional assay
A/Wyoming/3/2003 H3N2 HA = A/Wyoming/3/2003 H3N2 HA (influenza A virus A/Wyoming/3/2003 H3N2); experiment: cell-based or functional assay
[2] = biological target: T1, B/Brisbane/60/2008 (IBV) HA (influenza B virus B/Brisbane/60/2008 …, UniProt P22092 16-559); experiment: cell-based or functional assay
A/Texas/50/2012 = experiment: mPLEX-Flu multiplex bead assay, PE anti-human IgG, MFI heat map
B/Massachusetts/2/2012 = biological target: T2, B/Massachusetts/2/2012; experiment: as above
T2 construct: column under B

[3] = biological target: A/South Carolina/01/1918 H1N1 HA (influenza A virus A/South …, UniProt Q9WFX3 18-529); experiment: as above
[4] = biological target: T1, B/Brisbane/60/2008 (IBV) HA; experiment: as above

B1: KPF1 human monoclonal antibody (hmAb) (antibody, V domains shown)
VH: EVQLLESGGGLVQPGGSLRISCAASGSTFGDFAMSWVRQSPGRGLEWVSVTSAGGDRTYYADSVKGRFTISRDNSKNTLYLQMNSLRGEDTAMYYCARLDSSGFHYGRPGRNWGQGTLVTVSS
VL: DIQMTHSPPSLSASVGDRITITCQASQDISYYLIWYQQKPGKAPKPLIYDASNLEAGVPSRFSASGSGTDFTLTISSLQPEDLATYYCQQYKSLPYTFGQGTKLEIK
For B1, the “NT50 (µg/ml), microneutralization, crystal violet” value (“NT50 (µg/ml), microneutralization” below) [1] was 146 µg/mL, the “NT50 (µg/ml), microneutralization” value (A/Wyoming/3/2003 H3N2 HA) was > 200 µg/mL and the “NT50 (µg/ml), microneutralization” value [2] was > 200 µg/mL. B1: no binding (tested: 1 ug/ml) (A/Texas/50/2012); no binding (tested: 1 ug/ml) (B/Massachusetts/2/2012); binds [3]. B1: no binding (tested: 1 ug/ml) [4].

Source: patent US20200140526A1 (UNIVERSITY OF ROCHESTER, published 2020)
